In article doi:10.1101/2025.02.06.636808, “DNA Binding by the Escherichia coli MinC–MinD Complex Requires the MinC Interdomain Linker” (bioRxiv, 2025):

T1: MinD (E. coli) (E. coli, UniProt P0AEZ3 1-270)
T1 construct: source: E. coli Rosetta(DE3)pLysS, purified (nickel IMAC, desalting); His tag removed with thrombin; not shown: T7 tag, N-terminal, kept
T1 sequence (looked up): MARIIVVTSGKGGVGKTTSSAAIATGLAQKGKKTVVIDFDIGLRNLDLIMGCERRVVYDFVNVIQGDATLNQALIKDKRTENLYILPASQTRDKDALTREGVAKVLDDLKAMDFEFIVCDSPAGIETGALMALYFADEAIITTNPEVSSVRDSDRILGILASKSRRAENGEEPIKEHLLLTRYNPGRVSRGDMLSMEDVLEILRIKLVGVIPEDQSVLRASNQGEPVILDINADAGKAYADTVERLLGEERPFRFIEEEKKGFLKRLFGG

B1: MinC-1xAGGSG linker mutant (natural protein, E. coli)
chain: MSNTPIELKGSSFTLSVVHLHEAEPKVIHQALEDKIAQAPAFLKHAPVVLNVSALEDPVNWSAMHKAVSATGLRVIGVSGCKDAQLKAEIEKMGLPILTEGAGGSGPVTKTRLIDTPVRSGQRIYAPQCDLIVTSHVSAGAELIADGNIHVYGMMRGRALAGASGDRETQIFCTNLMAELVSIAGEYWLSDQIPAEFYGKAARLQLVENALTVQPLN
notes: MinC, E. coli MG1655, N-terminal part before the linker, residues 1-101; linker that replaces residues 102-120 of MinC; MinC, E. coli MG1655, C-terminal part after the linker, residues 121-231; source: E. coli Rosetta(DE3)pLysS, purified (nickel IMAC, desalting); His tag removed with thrombin; not shown: T7 tag, N-terminal, kept
B2: MinC-4xAGGSG linker mutant (natural protein, E. coli)
chain: MSNTPIELKGSSFTLSVVHLHEAEPKVIHQALEDKIAQAPAFLKHAPVVLNVSALEDPVNWSAMHKAVSATGLRVIGVSGCKDAQLKAEIEKMGLPILTEGAGGSGAGGSGAGGSGAGGSGPVTKTRLIDTPVRSGQRIYAPQCDLIVTSHVSAGAELIADGNIHVYGMMRGRALAGASGDRETQIFCTNLMAELVSIAGEYWLSDQIPAEFYGKAARLQLVENALTVQPLN
notes: MinC, E. coli MG1655, N-terminal part before the linker, residues 1-101; linker that replaces residues 102-120 of MinC: AGGSG repeated four times; MinC, E. coli MG1655, C-terminal part after the linker, residues 121-231; source: E. coli Rosetta(DE3)pLysS, purified (nickel IMAC, desalting); His tag removed with thrombin; not shown: T7 tag, N-terminal, kept
B3: MinE (E. coli) (natural protein, UniProt P0A734 1-88, looked up)
chain: MALLDFFLSRKKNTANIAKERLQIIVAERRRSDAEPHYLPQLRKDILEVICKYVQIDPEMVTVQLEQKDGDISILELNVTLPEAEELK
notes: a T7 tag from pET28a may be left; source: E. coli Rosetta(DE3)pLysS, purified (nickel IMAC, desalting)
B4: MinC-2xAGGSG linker mutant (natural protein, E. coli)
chain: MSNTPIELKGSSFTLSVVHLHEAEPKVIHQALEDKIAQAPAFLKHAPVVLNVSALEDPVNWSAMHKAVSATGLRVIGVSGCKDAQLKAEIEKMGLPILTEGAGGSGAGGSGPVTKTRLIDTPVRSGQRIYAPQCDLIVTSHVSAGAELIADGNIHVYGMMRGRALAGASGDRETQIFCTNLMAELVSIAGEYWLSDQIPAEFYGKAARLQLVENALTVQPLN
notes: MinC, E. coli MG1655, N-terminal part before the linker, residues 1-101; linker that replaces residues 102-120 of MinC: AGGSG repeated twice; MinC, E. coli MG1655, C-terminal part after the linker, residues 121-231; source: E. coli Rosetta(DE3)pLysS, purified (nickel IMAC, desalting); His tag removed with thrombin; not shown: T7 tag, N-terminal, kept
B5: MinC-3xAGGSG linker mutant (natural protein, E. coli)
chain: MSNTPIELKGSSFTLSVVHLHEAEPKVIHQALEDKIAQAPAFLKHAPVVLNVSALEDPVNWSAMHKAVSATGLRVIGVSGCKDAQLKAEIEKMGLPILTEGAGGSGAGGSGAGGSGPVTKTRLIDTPVRSGQRIYAPQCDLIVTSHVSAGAELIADGNIHVYGMMRGRALAGASGDRETQIFCTNLMAELVSIAGEYWLSDQIPAEFYGKAARLQLVENALTVQPLN
notes: MinC, E. coli MG1655, N-terminal part before the linker, residues 1-101; linker that replaces residues 102-120 of MinC: AGGSG repeated three times; MinC, E. coli MG1655, C-terminal part after the linker, residues 121-231; source: E. coli Rosetta(DE3)pLysS, purified (nickel IMAC, desalting); His tag removed with thrombin; not shown: T7 tag, N-terminal, kept
B6: MinC19RL linker mutant (natural protein, E. coli)
chain: MSNTPIELKGSSFTLSVVHLHEAEPKVIHQALEDKIAQAPAFLKHAPVVLNVSALEDPVNWSAMHKAVSATGLRVIGVSGCKDAQLKAEIEKMGLPILTEGAGGSGAGGSGAGGSGAGGSPVTKTRLIDTPVRSGQRIYAPQCDLIVTSHVSAGAELIADGNIHVYGMMRGRALAGASGDRETQIFCTNLMAELVSIAGEYWLSDQIPAEFYGKAARLQLVENALTVQPLN
notes: MinC, E. coli MG1655, N-terminal part before the linker, residues 1-101; linker that replaces residues 102-120 of MinC: as the 4x linker but without the last glycine, 19 residues; MinC, E. coli MG1655, C-terminal part after the linker, residues 121-231; source: E. coli Rosetta(DE3)pLysS, purified (nickel IMAC, desalting); His tag removed with thrombin; not shown: T7 tag, N-terminal, kept
B7: MinC-GS linker mutant (natural protein, E. coli)
chain: MSNTPIELKGSSFTLSVVHLHEAEPKVIHQALEDKIAQAPAFLKHAPVVLNVSALEDPVNWSAMHKAVSATGLRVIGVSGCKDAQLKAEIEKMGLPILTEGGSPVTKTRLIDTPVRSGQRIYAPQCDLIVTSHVSAGAELIADGNIHVYGMMRGRALAGASGDRETQIFCTNLMAELVSIAGEYWLSDQIPAEFYGKAARLQLVENALTVQPLN
notes: MinC, E. coli MG1655, N-terminal part before the linker, residues 1-101; linker that replaces residues 102-120 of MinC; MinC, E. coli MG1655, C-terminal part after the linker, residues 121-231; Made from pET28a-MinC by amplifying the whole plasmid except residues 102-120; source: E. coli Rosetta(DE3)pLysS, purified (nickel IMAC, desalting); His tag removed with thrombin; not shown: T7 tag, …

Molecular target: T1, MinD (E. coli)
Experiment: co-sedimentation; liposome co-sedimentation without DNA, competition: MinD 1 uM, MinC 1 uM, increasing MinE, 160 ug/mL liposomes, 1 mM ATP, ATPase buffer; SDS-PAGE, Coomassie
Settings: both partners purified

Binder | binding result
B1 | binds
B2 | binds
B3 | binds
B4 | binds
B5 | binds

Molecular target: T1, MinD (E. coli)
Experiment: co-sedimentation; liposome co-sedimentation without DNA: MinD 2 uM, MinC 2 uM, 0.5 mg/mL liposomes, 1 mM ATP, ATPase buffer (25 mM Tris-HCl pH 7.5, 50 mM KCl, 5 mM MgCl2, 5% glycerol); SDS-PAGE, Coomassie
Settings: both partners purified

Binder | binding result
B6 | binds
B7 | binds
